The record followed here is EP2878677A1, “Activators of protein phosphatase 5” (Deutsches Zentrum für Neurodegenerative Erkrankungen e.V. …, priority 2013, dated 2015).

This assay has as its target YFP-Hsp90/DAF-21 (N-terminal YFP-tagged Hsp90) (C. elegans) (UniProt Q18688). Nature of the assay: sedimentation velocity AUC with fluorescence detection; 300 nM YFP-Hsp90, 3 uM PPH-5; YFP-Hsp90 alone 6.8 S.

“PPH-5 (C. elegans protein phosphatase 5) (enzyme)” registered a sedimentation coefficient (s20,w) of YFP-Hsp90 in complex with PPH-5 of 8.9 S.
